Patent US20050232926A1, “Antibodies specific for cancer associated antigen SM5-1 and uses thereof” (Oncomax Acquisition Corp., priority 2003, published 2005)
Residues, ends and D or L forms follow the SMILES beside them. *: point of attachment. Cbz = O=C(OCc1ccccc1)*; CH2F = FC*

How the values were obtained:
[1] = test system: QYC cells; assay: Inhibition of huSM5-1 induced apoptosis by caspase inhibitors; format: cell-based, human; conditions: QYC cells incubated with caspase inhibitor at 50 mol/l for 2 h, then 50 ng/ml huSM5-1 antibody
Method: To determine whether caspase is involved in huSM5-1 antibody induced apoptosis, a variety of caspase inhibitors were tested to observe the inhibitory rate of apoptosis. The caspase inhibitors tested included common caspase inhibitor (Z-VAD-FMK), caspase-1 inhibitor (Z-WEHD-FMK), caspase-2 inhibitor (Z-VDVAD-FMK), caspase-3 inhibitor (Z-DEVD-FMK), caspase-4 inhibitor (Z-YVAD-FMK), caspase-6 inhibitor (Z-VEID-FMK), caspase-8 inhibitor (Z-IETD-FMK), caspase-9 inhibitor (Z-LEHD-FMK), caspase-10 inhibitor (Z-AVED-FMK), caspase-13 inhibitor (Z-LEED-FMK). QYC cells were incubated with caspase inhibitor at 50 mol/l for 2 h. QYC cells were then treated with 50 ng/ml huSM5-1 antibody. The inhibitory rates of these inhibitors were: 72% for pan-caspase inhibitor, 52% for caspase-10 inhibitor, 28% for caspase-6 inhibitor, 27% for caspase-1 inhibitor, 17% for caspase-8 inhibitor, 15% for caspase-13 inhibitor, 14% for caspase-4 inhibitor, 5% for caspase-9 inhibitor, 1% for caspase-2 inhibitor, 1% for caspase-3 inhibitor.

[2] = test system: caspase-10; assay: Caspase-10 colorimetric activity assay in huSM5-1 treated XJC cells; format: cell-based
Method: (§1) To further confirm that huSM5-1 induced apoptosis is caspase-10 related, caspase-10 color comparing analysis kit was used to examine the increase of caspase-10 bioactivity in QYC and XJC cells. Caspase-10 activity was examined with caspase-10 analysis kit (R&D, USA) according to manufacture's instruction. Cells were incubated with 50 ng/ml huSM5-1 antibody for a certain period of time. Cells were then centrifuged and lysed in a lysis buffer (25 ul/10^6 cells) on ice for 10 min. The lysates were centrifuged, and the supernatant was transferred into new tubes and kept on ice. The enzyme activity of caspase was examined on 96-well micro-titer plate. Each reaction included 50 μl supernatant from cell lysate, 50 μl 2× reaction buffer, 10 μl fresh DTT storage solution. In addition, 5 ul caspase-10 color-comparing substrate (AEVD-pNA) was added into the reaction. The plate was incubated at 37° C. for 1-2 h and absorbance at 405 nm was then measured. The increase of caspase-10 related activity was calculated according to the following equation: Caspase-10 activity (%)=(B−C)/(A−C)×100%
(§2) “A” represents OD value of supernatant from cell lysates without huSM5-1 antibody treatment; “B” represents OD value of supernatant from cell lysate treated with huSM5-1; “C” represents OD value of negative control. Each test was done in triplicate.

[3] = test system: hepatocellular carcinoma cell line QYC; assay: Cell growth inhibition by huSM5-1, MTT assay; format: cell-based, human
Method: Cell growth inhibition by huSM5-1 antibody was tested using MTT assay. MTT assay is based on the principle that viable cells can reduce yellow MTT into blue purple crystals. Cells of interest (1×10^3) were incubated with various concentrations of antibodies. After a period of time, 20 μl MTT (0.5 mg/ml) was added into the cell culture medium and was incubated for 2 h. After the incubation, culture medium was removed and 150 μl DMSO was added to solubilize the MTT precipitate. The reduced MTT was examined by measuring absorbance at 490 nm using Benchmark optical absorption reading machine (Bio-Rad Laboratories). The cell growth inhibition was calculated according to the following equation: Inhibition (%)=(B−C)/(A−C)×100
“A” represents the OD value of cells without huSM5-1 treatment; “B” represents the OD value of huSM5-1 treated cells; and “C” represents the OD value of negative control. Each condition was performed in triplicate.
Growth inhibition by huSM5-1 were tested in four tumor cell lines (hepatocellular carcinoma cell QYC and XJC, breast cancer cell line MDA-MB-231, and melanoma cell line CRL-1872) using MTT assay. Cells were treated with different amount of huSM5-1 (50 ng/ml, 10 ng/ml, 1 ng/ml) for 24 h, 48 h, 72 h, and 96 h. The most inhibition occurred when the concentration of the antibody was at 50 ng/ml and after 72 h treatment.

[4] = test system: melanoma cell line A2058; assay: MTT assay of viable cells after huSM5-1 treatment; format: cell-based, human; conditions: 570 nm, final volume 500 μl, 24 h
Method: (§3) The melanoma cell line A2058 was expanded to 10^6/ml in RPMI-1640 culture medium. The cell suspension (20 μl) and different amount of huSM5-1 (0, 1, 5, 10, 20, 50, 100 μl) were added into each well of the 96 well plate. The antibody huSM5-1 was diluted in RPMI-1640 medium containning 10% FCS to reach a final concentration of 1 μg/μl before it was added into the well. RPMI-1640 medium containing 10% FCS was added to each well to make a final volume of 500 μl in each well. Each condition was performed in triplicate. Cells were incubated at 37° C. in a humidified incubator at 5% CO2 for 24 h. At the end of the incubation, cells were suspended and viable cells were examined under microscope or assessed using MTT.
MTT solution (5 mg/ml) was added into 0.2 ml cell suspension describe above at 1:10 dilution. The cells were then incubated at 37° C. for 30 min and optical adsorption at 570 nm for each sample was read.

[5] = test system: melanoma cell line A2058; assay: Viable cell count after huSM5-1 treatment; format: cell-based, human; conditions: final volume 500 μl, 24 h, relative to wells without huSM5-1
Method: as §3
Viable cells in 0.2 ml cell suspension from each well were counted. Viable cells are expressed as percentage of viable cells compared to the wells without addition of huSM5-1.

[6] = test system: caspase-10; assay: Caspase-10 colorimetric activity assay in huSM5-1 treated QYC cells; format: cell-based, human
Method: as §1, §2

COC(=O)C[C@H](NC(=O)[C@H](C)NC(=O)[C@@H](NC(=O)[C@H](CC(=O)OC)NC(=O)[C@@H](NC(=O)OCc1ccccc1)C(C)C)C(C)C)C(=O)CF [caspase-2 inhibitor, Z-VDVAD-FMK] (Cbz-VD(OMe)VAD(OMe)-CH2F)
inhibitory rate of huSM5-1 induced apoptosis [1]: 1%

COC(=O)CC[C@H](NC(=O)[C@H](CC(=O)OC)NC(=O)OCc1ccccc1)C(=O)N[C@H](C(=O)N[C@@H](CC(=O)OC)C(=O)CF)C(C)C [caspase-3 inhibitor, Z-DEVD-FMK]
inhibitory rate of huSM5-1 induced apoptosis [1]: 1%

CC[C@H](C)[C@H](NC(=O)OCc1ccccc1)C(=O)N[C@@H](CCC(=O)OC)C(=O)N[C@H](C(=O)N[C@@H](CC(=O)OC)C(=O)CF)[C@@H](C)O [caspase-8 inhibitor, Z-IETD-FMK] (Cbz-IE(OMe)TD(OMe)-CH2F)
inhibitory rate of huSM5-1 induced apoptosis [1]: 17%

COC(=O)CC[C@H](NC(=O)[C@H](Cc1c[nH]c2ccccc12)NC(=O)OCc1ccccc1)C(=O)N[C@@H](Cc1cnc[nH]1)C(=O)N[C@@H](CC(=O)OC)C(=O)CF [caspase-1 inhibitor, Z-WEHD-FMK] (Cbz-WE(OMe)HD(OMe)-CH2F)
inhibitory rate of huSM5-1 induced apoptosis [1]: 27%

COC(=O)CC[C@H](NC(=O)[C@H](CCC(=O)OC)NC(=O)[C@H](CC(C)C)NC(=O)OCc1ccccc1)C(=O)N[C@@H](CC(=O)OC)C(=O)CF [caspase-13 inhibitor, Z-LEED-FMK] (Cbz-LE(OMe)E(OMe)D(OMe)-CH2F)
inhibitory rate of huSM5-1 induced apoptosis [1]: 15%

COC(=O)C[C@H](NC(=O)[C@H](C)NC(=O)[C@@H](NC(=O)OCc1ccccc1)C(C)C)C(=O)CF [pan-caspase inhibitor, Z-VAD-FMK] (Cbz-Val-Ala-Asp(OMe)-CH2F)
inhibitory rate of huSM5-1 induced apoptosis [1]: 72%

CC[C@H](C)[C@H](NC(=O)[C@H](CCC(=O)OC)NC(=O)[C@@H](NC(=O)OCc1ccccc1)C(C)C)C(=O)N[C@@H](CC(=O)OC)C(=O)CF [caspase-6 inhibitor, Z-VEID-FMK] (Cbz-VE(OMe)ID(OMe)-CH2F)
inhibitory rate of huSM5-1 induced apoptosis [1]: 28%

COC(=O)CC[C@H](NC(=O)[C@H](CC(C)C)NC(=O)OCc1ccccc1)C(=O)N[C@@H](Cc1cnc[nH]1)C(=O)N[C@@H](CC(=O)OC)C(=O)CF [caspase-9 inhibitor, Z-LEHD-FMK] (Cbz-LE(OMe)HD(OMe)-CH2F)
inhibitory rate of huSM5-1 induced apoptosis [1]: 5%

COC(=O)C[C@H](NC(=O)[C@H](C)NC(=O)[C@@H](NC(=O)[C@H](Cc1ccc(O)cc1)NC(=O)OCc1ccccc1)C(C)C)C(=O)CF [caspase-4 inhibitor, Z-YVAD-FMK]
inhibitory rate of huSM5-1 induced apoptosis [1]: 14%

COC(=O)CCC(NC(=O)C(NC(=O)C(C)NC(=O)OCc1ccccc1)C(C)C)C(=O)NC(CC(=O)OC)C(=O)CF (stereo not drawn) [caspase-10 inhibitor, Z-AVED-FMK] (Cbz-AVE(OMe)D(OMe)-CH2F; configuration not given here)
inhibitory rate of huSM5-1 induced apoptosis [1]: 52%

B1: huSM5-1: human SM5-1 specific monoclonal antibody from phage library; VH SEQ ID NO:9, VL SEQ ID NO:10 (antibody, listed as Homo Sapiens, V domains shown)
VH: QVQLVESGGGVVQPGCSLRLSCSSSGYTFTSYTMHWVRQAPGKGLEWIGYINPYNDGGKYNEKFKWRFSISSDKSKNTLFLQSDSLTPEDTGVYYCARGSRYDWYGDYWGQGTPVTVSS
VL: DIQMTQSPSSLSGSVGDRVTITCDSSQSVLYSSKDDNYLAWYQQGPGKAPSLLIYYASDRESDVPSRFSGSGSGDDYTLTISSLQPEDAATYYCHQWFSSYTFDQGTKLNITR
Caspase-10 activity (%) ([2]; 50 ng/ml huSM5-1, 48 h): 17%
Caspase-10 activity (%) ([2]; 50 ng/ml huSM5-1, 72 h): 38%
Caspase-10 activity (%) ([2]; 50 ng/ml huSM5-1, 96 h): 28%
growth inhibition ([3]; 1 ng/ml, 24 h): 7%
growth inhibition ([3]; 1 ng/ml, 48 h): ~5%
growth inhibition ([3]; 1 ng/ml, 72 h): 10%
growth inhibition ([3]; 1 ng/ml, 96 h): 2.5%
growth inhibition ([3]; 10 ng/ml, 24 h): 11%
growth inhibition ([3]; 10 ng/ml, 48 h): ~17%
growth inhibition ([3]; 10 ng/ml, 72 h): 19%
growth inhibition ([3]; 10 ng/ml, 96 h): 11%
growth inhibition ([3]; 50 ng/ml, 24 h): 29%
growth inhibition ([3]; 50 ng/ml, 48 h): about 28%
growth inhibition ([3]; 50 ng/ml, 72 h): 43%
growth inhibition ([3]; 50 ng/ml, 96 h): 36%
Optical adsorption (%) ([4]; huSM5-1 addition 1 ul (1 μg/μl)): 96.3%
Optical adsorption (%) ([4]; huSM5-1 addition 5 ul (1 μg/μl)): 84.9%
Optical adsorption (%) ([4]; huSM5-1 addition 10 ul (1 μg/μl)): 66.2%
Optical adsorption (%) ([4]; huSM5-1 addition 20 ul (1 μg/μl)): 47.7%
Optical adsorption (%) ([4]; huSM5-1 addition 50 ul (1 μg/μl)): 33.6%
Optical adsorption (%) ([4]; huSM5-1 addition 100 ul (1 μg/μl)): 20.1%
Cell survival (%) ([5]; huSM5-1 addition 1 μl (1 μg/μl)): 87.8%
Cell survival (%) ([5]; huSM5-1 addition 5 μl (1 μg/μl)): 68.8%
Cell survival (%) ([5]; huSM5-1 addition 10 μl (1 μg/μl)): 53.2%
Cell survival (%) ([5]; huSM5-1 addition 20 μl (1 μg/μl)): 42.6%
Cell survival (%) ([5]; huSM5-1 addition 50 μl (1 μg/μl)): 32.6%
Cell survival (%) ([5]; huSM5-1 addition 100 μl (1 μg/μl)): 22.6%
Caspase-10 activity (%) ([6]; 50 ng/ml huSM5-1, 48 h): 13%
Caspase-10 activity (%) ([6]; 50 ng/ml huSM5-1, 96 h): 51%
